# Assay results published in patent publication US20260049138A1 (Chugai, published 2026).
# Target: CD3ε homodimer protein (human, UniProt P07766 23-126, limits assumed)
# Experiment: SPR Biacore T200, CD3e homodimer on chip
# Protocol: An appropriate amount of CD3ε homodimer protein was immobilized onto Sensor chip CM4 (GE Healthcare Japan Corp.) by the amine coupling method. Then, the antibody having an appropriate concentration was injected thereto as an analyte and allowed to interact with the CD3ε homodimer protein on the sensor chip. Then, the sensor chip was regenerated by the injection of 10 mmol/L glycine-HCl (pH 1.5). The assay was conducted at 25° C., and HBS-EP+ (GE Healthcare Japan Corp.) was used as a running buffer. […] Each parameter was calculated using Biacore T200 Evaluation Software (GE Healthcare Japan Corp.).
# Sequence of CD3ε homodimer protein (P07766 23-126 limits assumed): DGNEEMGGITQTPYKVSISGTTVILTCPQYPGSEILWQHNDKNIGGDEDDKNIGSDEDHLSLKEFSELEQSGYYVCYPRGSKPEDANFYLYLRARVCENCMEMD
row,KD ratio (KD of CE115HA000/KD of altered form),Binder
1,0.88,"CE115HA000 A52aE one-arm antibody (antibody, human IgG1, kappa, L234A L235A, N297A, name in Kabat numbering) heavy: QVQLVESGGGVVQPGRSLRLSCAASGFTFSNAWMHWVRQAPGKGLEWVAQIKEKSNNYATYYAESVKGRFTISRDDSKNSLYLQMNSLKTEDTAVYYCRYVHYGAYYGVDAWGQGTTVTVSSASTKGPSVFPLAPSSKSTSGGTAALGCLVKDYFPEPVTVSWNSGALTSGVHTFPAVLQSSGLYSLSSVVTVPSSSLGTQTYICNVNHKPSNTKVDKKVEPKSCDKTHTCPPCPAPEAAGGPSVFLFPPKPKDTLMISRTPEVTCVVVDVSHEDPEVKFNWYVDGVEVHNAKTKPREEQYASTYRVVSVLTVLHQDWLNGKEYKCKVSNKALPAPIEKTISKAKGQPREPQVYTLPPSRCELTKNQVSLSCAVKGFYPSDIAVEWESNGQPENNYKTTPPVLDSDGSFFLVSKLTVDKSRWQQGNVFSCSVMHEALHNHYTQKSLSLSPDYKDDDDK EPKSSDKTHTCPPCPAPELLGGPSVFLFPPKPKDTLMISRTPEVTCVVVDVSHEDPEVKFNWYVDGVEVHNAKTKPREEQYNSTYRVVSVLTVLHQDWLNGKEYKCKVSNKALPAPIEKTISKAKGQPREPQVCTLPPSRDELTKNQVSLWCLVKGFYPSDIAVEWESNGQPENNYKTTPPVLDSDGSFFLYSKLTVDKSRWQQGNVFSCSVMHEALHNRYTQKSLSLSP light: DIVMTQSPLSLPVTPGEPASISCRSSQSLVHSNRNTYLHWYQQKPGQAPRLLIYKVSNRFSGVPDRFSGSGSGTDFTLKISRVEAEDVGVYYCGQGTQVPYTFGQGTKLEIKRTVAAPSVFIFPPSDEQLKSGTASVVCLLNNFYPREAKVQWKVDNALQSGNSQESVTEQDSKDSTYSLSSTLTLSKADYEKHKVYACEVTHQGLSSPVTKSFNRGEC"
2,4.32,"CE115HA000 D101K one-arm antibody (antibody, human IgG1, kappa, L234A L235A, N297A, name in Kabat numbering) heavy: QVQLVESGGGVVQPGRSLRLSCAASGFTFSNAWMHWVRQAPGKGLEWVAQIKAKSNNYATYYAESVKGRFTISRDDSKNSLYLQMNSLKTEDTAVYYCRYVHYGAYYGVKAWGQGTTVTVSSASTKGPSVFPLAPSSKSTSGGTAALGCLVKDYFPEPVTVSWNSGALTSGVHTFPAVLQSSGLYSLSSVVTVPSSSLGTQTYICNVNHKPSNTKVDKKVEPKSCDKTHTCPPCPAPEAAGGPSVFLFPPKPKDTLMISRTPEVTCVVVDVSHEDPEVKFNWYVDGVEVHNAKTKPREEQYASTYRVVSVLTVLHQDWLNGKEYKCKVSNKALPAPIEKTISKAKGQPREPQVYTLPPSRCELTKNQVSLSCAVKGFYPSDIAVEWESNGQPENNYKTTPPVLDSDGSFFLVSKLTVDKSRWQQGNVFSCSVMHEALHNHYTQKSLSLSPDYKDDDDK EPKSSDKTHTCPPCPAPELLGGPSVFLFPPKPKDTLMISRTPEVTCVVVDVSHEDPEVKFNWYVDGVEVHNAKTKPREEQYNSTYRVVSVLTVLHQDWLNGKEYKCKVSNKALPAPIEKTISKAKGQPREPQVCTLPPSRDELTKNQVSLWCLVKGFYPSDIAVEWESNGQPENNYKTTPPVLDSDGSFFLYSKLTVDKSRWQQGNVFSCSVMHEALHNRYTQKSLSLSP light: DIVMTQSPLSLPVTPGEPASISCRSSQSLVHSNRNTYLHWYQQKPGQAPRLLIYKVSNRFSGVPDRFSGSGSGTDFTLKISRVEAEDVGVYYCGQGTQVPYTFGQGTKLEIKRTVAAPSVFIFPPSDEQLKSGTASVVCLLNNFYPREAKVQWKVDNALQSGNSQESVTEQDSKDSTYSLSSTLTLSKADYEKHKVYACEVTHQGLSSPVTKSFNRGEC"
3,18.4,"CE115HA000 K52E one-arm antibody (antibody, human IgG1, kappa, L234A L235A, N297A, name in Kabat numbering) heavy: QVQLVESGGGVVQPGRSLRLSCAASGFTFSNAWMHWVRQAPGKGLEWVAQIEAKSNNYATYYAESVKGRFTISRDDSKNSLYLQMNSLKTEDTAVYYCRYVHYGAYYGVDAWGQGTTVTVSSASTKGPSVFPLAPSSKSTSGGTAALGCLVKDYFPEPVTVSWNSGALTSGVHTFPAVLQSSGLYSLSSVVTVPSSSLGTQTYICNVNHKPSNTKVDKKVEPKSCDKTHTCPPCPAPEAAGGPSVFLFPPKPKDTLMISRTPEVTCVVVDVSHEDPEVKFNWYVDGVEVHNAKTKPREEQYASTYRVVSVLTVLHQDWLNGKEYKCKVSNKALPAPIEKTISKAKGQPREPQVYTLPPSRCELTKNQVSLSCAVKGFYPSDIAVEWESNGQPENNYKTTPPVLDSDGSFFLVSKLTVDKSRWQQGNVFSCSVMHEALHNHYTQKSLSLSPDYKDDDDK EPKSSDKTHTCPPCPAPELLGGPSVFLFPPKPKDTLMISRTPEVTCVVVDVSHEDPEVKFNWYVDGVEVHNAKTKPREEQYNSTYRVVSVLTVLHQDWLNGKEYKCKVSNKALPAPIEKTISKAKGQPREPQVCTLPPSRDELTKNQVSLWCLVKGFYPSDIAVEWESNGQPENNYKTTPPVLDSDGSFFLYSKLTVDKSRWQQGNVFSCSVMHEALHNRYTQKSLSLSP light: DIVMTQSPLSLPVTPGEPASISCRSSQSLVHSNRNTYLHWYQQKPGQAPRLLIYKVSNRFSGVPDRFSGSGSGTDFTLKISRVEAEDVGVYYCGQGTQVPYTFGQGTKLEIKRTVAAPSVFIFPPSDEQLKSGTASVVCLLNNFYPREAKVQWKVDNALQSGNSQESVTEQDSKDSTYSLSSTLTLSKADYEKHKVYACEVTHQGLSSPVTKSFNRGEC"
4,1.85,"CE115HA000 G98K one-arm antibody (antibody, human IgG1, kappa, L234A L235A, N297A, name in Kabat numbering) heavy: QVQLVESGGGVVQPGRSLRLSCAASGFTFSNAWMHWVRQAPGKGLEWVAQIKAKSNNYATYYAESVKGRFTISRDDSKNSLYLQMNSLKTEDTAVYYCRYVHYKAYYGVDAWGQGTTVTVSSASTKGPSVFPLAPSSKSTSGGTAALGCLVKDYFPEPVTVSWNSGALTSGVHTFPAVLQSSGLYSLSSVVTVPSSSLGTQTYICNVNHKPSNTKVDKKVEPKSCDKTHTCPPCPAPEAAGGPSVFLFPPKPKDTLMISRTPEVTCVVVDVSHEDPEVKFNWYVDGVEVHNAKTKPREEQYASTYRVVSVLTVLHQDWLNGKEYKCKVSNKALPAPIEKTISKAKGQPREPQVYTLPPSRCELTKNQVSLSCAVKGFYPSDIAVEWESNGQPENNYKTTPPVLDSDGSFFLVSKLTVDKSRWQQGNVFSCSVMHEALHNHYTQKSLSLSPDYKDDDDK EPKSSDKTHTCPPCPAPELLGGPSVFLFPPKPKDTLMISRTPEVTCVVVDVSHEDPEVKFNWYVDGVEVHNAKTKPREEQYNSTYRVVSVLTVLHQDWLNGKEYKCKVSNKALPAPIEKTISKAKGQPREPQVCTLPPSRDELTKNQVSLWCLVKGFYPSDIAVEWESNGQPENNYKTTPPVLDSDGSFFLYSKLTVDKSRWQQGNVFSCSVMHEALHNRYTQKSLSLSP light: DIVMTQSPLSLPVTPGEPASISCRSSQSLVHSNRNTYLHWYQQKPGQAPRLLIYKVSNRFSGVPDRFSGSGSGTDFTLKISRVEAEDVGVYYCGQGTQVPYTFGQGTKLEIKRTVAAPSVFIFPPSDEQLKSGTASVVCLLNNFYPREAKVQWKVDNALQSGNSQESVTEQDSKDSTYSLSSTLTLSKADYEKHKVYACEVTHQGLSSPVTKSFNRGEC"
5,5.55,"CE115HA000 D101R one-arm antibody (antibody, human IgG1, kappa, L234A L235A, N297A, name in Kabat numbering) heavy: QVQLVESGGGVVQPGRSLRLSCAASGFTFSNAWMHWVRQAPGKGLEWVAQIKAKSNNYATYYAESVKGRFTISRDDSKNSLYLQMNSLKTEDTAVYYCRYVHYGAYYGVRAWGQGTTVTVSSASTKGPSVFPLAPSSKSTSGGTAALGCLVKDYFPEPVTVSWNSGALTSGVHTFPAVLQSSGLYSLSSVVTVPSSSLGTQTYICNVNHKPSNTKVDKKVEPKSCDKTHTCPPCPAPEAAGGPSVFLFPPKPKDTLMISRTPEVTCVVVDVSHEDPEVKFNWYVDGVEVHNAKTKPREEQYASTYRVVSVLTVLHQDWLNGKEYKCKVSNKALPAPIEKTISKAKGQPREPQVYTLPPSRCELTKNQVSLSCAVKGFYPSDIAVEWESNGQPENNYKTTPPVLDSDGSFFLVSKLTVDKSRWQQGNVFSCSVMHEALHNHYTQKSLSLSPDYKDDDDK EPKSSDKTHTCPPCPAPELLGGPSVFLFPPKPKDTLMISRTPEVTCVVVDVSHEDPEVKFNWYVDGVEVHNAKTKPREEQYNSTYRVVSVLTVLHQDWLNGKEYKCKVSNKALPAPIEKTISKAKGQPREPQVCTLPPSRDELTKNQVSLWCLVKGFYPSDIAVEWESNGQPENNYKTTPPVLDSDGSFFLYSKLTVDKSRWQQGNVFSCSVMHEALHNRYTQKSLSLSP light: DIVMTQSPLSLPVTPGEPASISCRSSQSLVHSNRNTYLHWYQQKPGQAPRLLIYKVSNRFSGVPDRFSGSGSGTDFTLKISRVEAEDVGVYYCGQGTQVPYTFGQGTKLEIKRTVAAPSVFIFPPSDEQLKSGTASVVCLLNNFYPREAKVQWKVDNALQSGNSQESVTEQDSKDSTYSLSSTLTLSKADYEKHKVYACEVTHQGLSSPVTKSFNRGEC"
6,22.8,"CE115HA000 Q50A one-arm antibody (antibody, human IgG1, kappa, L234A L235A, N297A, name in Kabat numbering) heavy: QVQLVESGGGVVQPGRSLRLSCAASGFTFSNAWMHWVRQAPGKGLEWVAAIKAKSNNYATYYAESVKGRFTISRDDSKNSLYLQMNSLKTEDTAVYYCRYVHYGAYYGVDAWGQGTTVTVSSASTKGPSVFPLAPSSKSTSGGTAALGCLVKDYFPEPVTVSWNSGALTSGVHTFPAVLQSSGLYSLSSVVTVPSSSLGTQTYICNVNHKPSNTKVDKKVEPKSCDKTHTCPPCPAPEAAGGPSVFLFPPKPKDTLMISRTPEVTCVVVDVSHEDPEVKFNWYVDGVEVHNAKTKPREEQYASTYRVVSVLTVLHQDWLNGKEYKCKVSNKALPAPIEKTISKAKGQPREPQVYTLPPSRCELTKNQVSLSCAVKGFYPSDIAVEWESNGQPENNYKTTPPVLDSDGSFFLVSKLTVDKSRWQQGNVFSCSVMHEALHNHYTQKSLSLSPDYKDDDDK EPKSSDKTHTCPPCPAPELLGGPSVFLFPPKPKDTLMISRTPEVTCVVVDVSHEDPEVKFNWYVDGVEVHNAKTKPREEQYNSTYRVVSVLTVLHQDWLNGKEYKCKVSNKALPAPIEKTISKAKGQPREPQVCTLPPSRDELTKNQVSLWCLVKGFYPSDIAVEWESNGQPENNYKTTPPVLDSDGSFFLYSKLTVDKSRWQQGNVFSCSVMHEALHNRYTQKSLSLSP light: DIVMTQSPLSLPVTPGEPASISCRSSQSLVHSNRNTYLHWYQQKPGQAPRLLIYKVSNRFSGVPDRFSGSGSGTDFTLKISRVEAEDVGVYYCGQGTQVPYTFGQGTKLEIKRTVAAPSVFIFPPSDEQLKSGTASVVCLLNNFYPREAKVQWKVDNALQSGNSQESVTEQDSKDSTYSLSSTLTLSKADYEKHKVYACEVTHQGLSSPVTKSFNRGEC"
